Experimental data published in publication PMC3036151, “Cloning and endogenous expression of a Eucalyptus grandis UDP-glucose dehydrogenase cDNA” (Genetics and Molecular Biology, 2010).

How the values were obtained:
purified protein [1] = substrate: O=c1ccn([C@@H]2O[C@H](CO[P@@](=O)(O)O[P@@](=O)(O)O[C@H]3O[C@H](CO)[C@@H](O)[C@H](O)[C@H]3O)[C@@H](O)[C@H]2O)c(=O)[nH]1; assay: purified protein; type: biochemical, Eucalyptus grandis; conditions: NAD+ saturating (1 mM), 20 mM Tris-HCl pH 8.0, 2 mM MgCl2, 30 °C, panel letters in text and Figure 3 caption are swapped
purified protein [2] = substrate: NC(=O)c1ccc[n+]([C@@H]2O[C@H](COP(=O)(O)OP(=O)(O)OC[C@H]3O[C@@H](n4cnc5c(N)ncnc54)[C@H](O)[C@@H]3O)[C@@H](O)[C@H]2O)c1; assay: purified protein; type: biochemical, Eucalyptus grandis; conditions: UDP-glucose saturating (1 mM), 20 mM Tris-HCl pH 8.0, 2 mM MgCl2, 30 °C, panel letters in text and Figure 3 caption are swapped, varied: cofactor

B1: UDP-glucose dehydrogenase (UGDH), Poly-His-Tagged eucalyptus UDP-GDH, UDP-GlucDH (Eucalyptus grandis) (protein)
chain: MVKICCIGAGYVGGPTMAVIALKCPSVEVAVVDISVSRIQAWNSEQLPIYEPGLDAVVKQCRGKNLFFSTDVEKHVFEADIVFVSVNTPTKTRGLGAGKAADLTYWESAARMIADVSKSDKIVVEKSTVPVKTAEAIEKILTHNSKGIKFQILSNPEFLAEGTAIQDLFAPDRVLIGGRETPEGQKAIQTLKDVYAHWVPEDRILTTNLWSAELSKLAANAFLAQRISSVNAMSSLCEATGADVAQVSYAVGKDSRIGPKFLNASVGFGGSCFQKDILNLVYICECNGLPEVAEYWKQVIKINDYQKARFVNRVVSSMFNTVSNKKIAILGFAFKKDTGDTRETPAIDVCKGLLGDKARLSIYDPQVTEEQIQRDLTMNKFDWDHPVHLQPMSPTTVKQVSVVWDAYDAVKDAHGLCILTEWDEFKTLDYQRIYDNMQKPAYIFDGRNVVNVNKLREIGFIVYSIGKPLDPWLKDMPAVA
notes: full-length ORF (1443 bp, 480 residues, about 53 kDa) from cambial-region cDNA, N-terminal 6xHis tag (pDEST17) kept, E. coli BL21-AI; cDNA ends set by degenerate primers
Km (purified protein [1]): 60.7 ± 8.5 µM
Km (purified protein [2]): 67.3 ± 17.9 µM
